Experimental data taken from PMC11742489.
Values joined by “and” are separate entries in the source; they are usually repeats but may differ in a detail not shown here. Equal entries are not always repeated.

Biological target: Ca2+/CaM
Assay: ITC; Cav1.2-NSCaTE peptide (20-fold molar excess) injected into CaM (~50 uM); 50 mM HEPES, 100 mM KCl, 2 mM MgCl2, pH 7.5, 5 mM CaCl2 (Ca2+-saturating); 20°C by the legend, 25°C by the methods; one-site binding model

Q: How did the stoichiometry N turn out when Cav1.2-NSCaTE(51-67) peptide was run?
A: 2 and 1.7
